Source: article PMC4686654

How the values were obtained:
[1] = molecular target: EGFP-RhoA (UniProt P61586); test: fluorescence polarisation; 100 nM EGFP-RhoA.GDP titrated with Dbs; 20 mM Tris pH 7.4, 150 mM KCl, 1 mM TCEP, 1 mM EDTA (nucleotide-free RhoA); 25 °C
[2] = molecular target: EGFP-RhoA (UniProt P61586); test: fluorescence polarisation; 100 nM EGFP-RhoA.GDP titrated with Dbs; 20 mM Tris pH 7.4, 150 mM KCl, 1 mM TCEP, 2 mM MgCl2 (nucleotide-loaded RhoA); 25 °C

EGFP-RhoA, sequence (P61586 whole entry): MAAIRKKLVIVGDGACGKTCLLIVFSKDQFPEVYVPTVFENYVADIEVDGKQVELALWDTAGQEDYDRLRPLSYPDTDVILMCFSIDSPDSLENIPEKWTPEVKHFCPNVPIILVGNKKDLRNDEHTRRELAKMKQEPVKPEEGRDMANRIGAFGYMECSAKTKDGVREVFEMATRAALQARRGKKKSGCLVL

Kd [1]: 0.354 µM | Kd [2]: 21.2 µM
B1: guanine exchange factor Dbs 622-965 (domain or fragment)
chain: TGEEEESLAILRRHVMNELLDTERAYVEELLCVLEGYAAEMDNPLMAHLISTGLQNKKNILFGNMEEIYHFHNRNIPAGLESCIDCPELVGRCFLERMEEFQIYEKYCQNKPRSESLWRQCSDCPFFQECQKKLDHKLSLDSYLLKPVQRITKYQLLLKEMLKYSKHCEGAEDLQEALSSILGILKAVNDSMHLIAITGYDGNLGDLGKLLMQGSFSVWTDHKKGHTKVKELARFKPMQRHLFLHEKAVLFCKKREENGEGYEKAPSYSYKQSLNMTAVGITENVKGDTKKFEIWYNAREEVYIIQAPTPEIKAAWVNEIRKVLTSQLQACREASQHRALEQSH
